Test results reported in PMC10993188, “RAD51 separation of function mutation disables replication fork maintenance but preserves DSB repair”.

Assays:
[1] = target: T1, RAD51 WT;BRCA2 Ex27 peptide (TR2) (Homo sapiens;Homo sapiens, UniProt Q06609;P51587 1-339;, |); experiment: EMSA super-shift; 5.7 uM Ex27, 1 mM ATP, 1 mM Mg2+; almost completely resistant to GST-BRC3; EMSA: 10 mM Tris-HCl pH 7.5, 10 mM KCl, 1 mM MgCl2, 1 mM ATP, 1 mM DTT, 25 C, 25 nM DNA, 1.1 uM RAD51; BLI: 50 mM Tris-HCl pH 7.5, 50 mM KCl, 5 mM MgCl2, 2 mM ATP, 0.05% Tween 20, 15 nM DNA; stopped-flow buffer not in material; details: tags: ;; label: 5' FAM (FITC); single strand
RAD51 WT [2] = target: T2, RAD51 WT (Homo sapiens, UniProt Q06609 1-339); experiment: EMSA; 1 mM ATP, 1 mM Mg2+; no Ex27; complex disassembled by GST-BRC3; EMSA: 10 mM Tris-HCl pH 7.5, 10 mM KCl, 1 mM MgCl2, 1 mM ATP, 1 mM DTT, 25 C, 25 nM DNA, 1.1 uM RAD51; BLI: 50 mM Tris-HCl pH 7.5, 50 mM KCl, 5 mM MgCl2, 2 mM ATP, 0.05% Tween 20, 15 nM DNA; stopped-flow buffer not in material; details: protein: recombinant; chain copies: 10; label: 5' FAM (FITC); single strand
T2 sequence (Q06609 whole entry): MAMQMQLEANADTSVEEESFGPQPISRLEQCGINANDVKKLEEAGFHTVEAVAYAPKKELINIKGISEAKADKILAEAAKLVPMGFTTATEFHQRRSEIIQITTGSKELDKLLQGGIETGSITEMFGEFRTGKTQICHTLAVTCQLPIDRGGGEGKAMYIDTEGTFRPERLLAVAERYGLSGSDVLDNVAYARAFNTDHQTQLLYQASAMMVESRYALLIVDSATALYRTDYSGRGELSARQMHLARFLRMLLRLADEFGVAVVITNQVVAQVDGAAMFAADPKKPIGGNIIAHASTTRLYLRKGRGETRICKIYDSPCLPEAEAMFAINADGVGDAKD

RAD51 S181P (SP) [3] = target: T3, RAD51 S181P (SP) (Homo sapiens, UniProt Q06609 1-339, S181P); experiment: BLI; 2 mM ATP, 5 mM Mg2+; 2 uM RAD51; dissociated by GST-BRC4; EMSA: 10 mM Tris-HCl pH 7.5, 10 mM KCl, 1 mM MgCl2, 1 mM ATP, 1 mM DTT, 25 C, 25 nM DNA, 1.1 uM RAD51; BLI: 50 mM Tris-HCl pH 7.5, 50 mM KCl, 5 mM MgCl2, 2 mM ATP, 0.05% Tween 20, 15 nM DNA; stopped-flow buffer not in material; details: protein: recombinant; chain copies: 10; label: 3' biotin; single strand
T3 sequence (Q06609 whole entry S181P): as the sequence (Q06609 whole entry) above, with S181P counted along it

RAD51 WT [4] = target: T2, RAD51 WT; experiment: as above; details: protein: recombinant; chain copies: 10; label: 3' biotin; single strand
[5] = target: T1, RAD51 WT;BRCA2 Ex27 peptide (TR2); experiment: stopped-flow PIFE; Ex27 increases amplitude and decreases binding rate; EMSA: 10 mM Tris-HCl pH 7.5, 10 mM KCl, 1 mM MgCl2, 1 mM ATP, 1 mM DTT, 25 C, 25 nM DNA, 1.1 uM RAD51; BLI: 50 mM Tris-HCl pH 7.5, 50 mM KCl, 5 mM MgCl2, 2 mM ATP, 0.05% Tween 20, 15 nM DNA; stopped-flow buffer not in material; details: tags: ;; label: 5' Cy3; single strand
RAD51 S181P (SP) [6] = target: T3, RAD51 S181P (SP); experiment: stopped-flow PIFE; no Ex27; similar mechanism to WT, slower assembly at suboptimal concentrations; EMSA: 10 mM Tris-HCl pH 7.5, 10 mM KCl, 1 mM MgCl2, 1 mM ATP, 1 mM DTT, 25 C, 25 nM DNA, 1.1 uM RAD51; BLI: 50 mM Tris-HCl pH 7.5, 50 mM KCl, 5 mM MgCl2, 2 mM ATP, 0.05% Tween 20, 15 nM DNA; stopped-flow buffer not in material; details: protein: recombinant; chain copies: 10; label: 5' Cy3; single strand
RAD51 WT [7] = target: T2, RAD51 WT; experiment: stopped-flow PIFE; no Ex27; EMSA: 10 mM Tris-HCl pH 7.5, 10 mM KCl, 1 mM MgCl2, 1 mM ATP, 1 mM DTT, 25 C, 25 nM DNA, 1.1 uM RAD51; BLI: 50 mM Tris-HCl pH 7.5, 50 mM KCl, 5 mM MgCl2, 2 mM ATP, 0.05% Tween 20, 15 nM DNA; stopped-flow buffer not in material; details: protein: recombinant; chain copies: 10; label: 5' Cy3; single strand

B1: 5'FITC-90mer ssDNA (ssDNA)
DNA: AAATCAATCTAAAGTATATATGAGTAAACTTGGTCTGACAGTTACCAATGCTTAATCAGTGAGGCACCTATCTCAGCGATCTGTCTATTT
binding result [1]: binds | binding result (RAD51 WT [2]): binds

B2: oligo-dT 43-mer (ssDNA)
DNA: TTTTTTTTTTTTTTTTTTTTTTTTTTTTTTTTTTTTTTTTTTT
binding result (RAD51 S181P (SP) [3]): binds | binding result (RAD51 WT [4]): binds

B3: Cy3-(dT)79 (ssDNA)
DNA: TTTTTTTTTTTTTTTTTTTTTTTTTTTTTTTTTTTTTTTTTTTTTTTTTTTTTTTTTTTTTTTTTTTTTTTTTTTTTTT
binding result [5]: binds | binding result (RAD51 S181P (SP) [6]): binds | binding result (RAD51 WT [7]): binds
